Earlier results on one substance are cited in publication PMC10813780.

Broadly, the Kd is the constant that tells how readily two partners part at equilibrium.

The data set concerns the target TLR4 (Homo sapiens) (UniProt O00206).
Sequence of UniProt O00206 (O00206 24-839): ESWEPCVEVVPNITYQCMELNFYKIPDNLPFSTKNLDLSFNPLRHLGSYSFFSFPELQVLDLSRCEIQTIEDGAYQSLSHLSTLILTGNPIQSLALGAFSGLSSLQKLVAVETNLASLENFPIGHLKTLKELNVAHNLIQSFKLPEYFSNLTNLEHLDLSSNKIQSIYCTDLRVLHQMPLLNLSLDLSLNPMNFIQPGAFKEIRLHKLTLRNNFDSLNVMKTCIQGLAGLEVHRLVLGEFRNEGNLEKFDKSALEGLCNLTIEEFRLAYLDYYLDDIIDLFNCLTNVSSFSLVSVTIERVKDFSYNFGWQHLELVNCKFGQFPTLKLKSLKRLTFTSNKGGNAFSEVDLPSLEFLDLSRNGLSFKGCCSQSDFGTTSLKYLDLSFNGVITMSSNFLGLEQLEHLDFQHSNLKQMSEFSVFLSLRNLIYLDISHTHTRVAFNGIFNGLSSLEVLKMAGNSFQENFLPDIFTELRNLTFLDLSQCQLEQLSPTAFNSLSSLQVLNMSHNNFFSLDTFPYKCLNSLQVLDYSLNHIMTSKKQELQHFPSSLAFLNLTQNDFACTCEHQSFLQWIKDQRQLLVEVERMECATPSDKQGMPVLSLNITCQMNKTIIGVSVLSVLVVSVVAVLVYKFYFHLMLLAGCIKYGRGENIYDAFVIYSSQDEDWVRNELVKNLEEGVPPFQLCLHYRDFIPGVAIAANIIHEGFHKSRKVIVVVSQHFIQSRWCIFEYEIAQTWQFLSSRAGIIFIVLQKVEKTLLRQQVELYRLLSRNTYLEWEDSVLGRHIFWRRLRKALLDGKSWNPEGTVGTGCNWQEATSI

As for API5 (from UniProt Q9BZZ5), the Kd was 430 nM.
